Target: T1, IL-2 receptor (mouse, on CTLL-2 cells and murine splenocytes) (mouse, UniProt P01590 22-268; P16297 27-539; P34902 23-369)
T1 sequence (looked up) 1: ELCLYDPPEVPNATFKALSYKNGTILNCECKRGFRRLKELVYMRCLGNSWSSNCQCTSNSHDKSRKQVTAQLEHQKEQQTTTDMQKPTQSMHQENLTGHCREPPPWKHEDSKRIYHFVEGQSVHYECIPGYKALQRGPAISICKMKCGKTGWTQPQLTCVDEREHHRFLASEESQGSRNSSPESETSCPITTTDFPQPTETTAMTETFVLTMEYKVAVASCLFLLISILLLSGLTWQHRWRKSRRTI
T1 sequence (looked up) 2: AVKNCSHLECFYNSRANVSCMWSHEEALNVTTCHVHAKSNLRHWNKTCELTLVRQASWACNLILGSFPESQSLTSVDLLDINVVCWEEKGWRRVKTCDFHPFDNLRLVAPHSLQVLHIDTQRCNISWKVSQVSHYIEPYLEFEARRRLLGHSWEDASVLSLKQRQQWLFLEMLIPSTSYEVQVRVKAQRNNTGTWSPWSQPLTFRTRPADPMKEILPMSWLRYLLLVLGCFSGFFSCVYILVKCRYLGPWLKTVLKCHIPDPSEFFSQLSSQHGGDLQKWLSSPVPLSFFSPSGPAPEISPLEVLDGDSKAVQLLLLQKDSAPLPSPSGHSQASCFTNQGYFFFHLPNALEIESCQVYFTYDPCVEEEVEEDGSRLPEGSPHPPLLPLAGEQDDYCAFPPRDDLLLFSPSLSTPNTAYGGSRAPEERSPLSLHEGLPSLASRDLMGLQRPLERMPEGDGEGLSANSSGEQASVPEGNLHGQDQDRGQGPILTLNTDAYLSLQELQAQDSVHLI
T1 sequence (looked up) 3: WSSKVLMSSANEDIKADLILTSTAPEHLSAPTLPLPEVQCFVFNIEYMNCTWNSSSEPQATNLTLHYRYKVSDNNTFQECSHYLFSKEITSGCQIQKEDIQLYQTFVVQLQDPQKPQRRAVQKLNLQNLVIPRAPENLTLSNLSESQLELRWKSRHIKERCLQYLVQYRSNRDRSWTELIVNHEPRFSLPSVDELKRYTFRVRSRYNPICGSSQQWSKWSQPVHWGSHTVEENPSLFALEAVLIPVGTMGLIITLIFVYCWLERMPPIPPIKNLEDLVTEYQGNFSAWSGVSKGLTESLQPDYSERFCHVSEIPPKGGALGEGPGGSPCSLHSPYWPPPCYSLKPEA
Assay: cell-based or functional assay

B1: unconjugated peptide TT23 (peptide)
peptide: TGLNRILLGFLG
Percent inhibition of IL-2 induced proliferation of murine splenocytes (recombinant human IL-2, trypan blue viable cell counts, 48 hours); amount needed relative to PEG-TT23: ~100 fold

— patent publication US20030012785A1 (WATSON PHARMACEUTICALS, published 2003)
